Test results as given in PMC10486284.

Target: T1, Human TIGIT extracellular domain, C-terminal hexahistidine and AviTag (human), Q495A1
T1 chain: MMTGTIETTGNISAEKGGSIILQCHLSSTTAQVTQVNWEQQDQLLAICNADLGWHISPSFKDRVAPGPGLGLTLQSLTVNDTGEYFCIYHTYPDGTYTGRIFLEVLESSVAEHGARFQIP
Assay: SEC-MALS
Details: remark: other sources report otherwise

B1: Human CD112 extracellular domain, C-terminal hexahistidine, Q92692 32-360 (ligand)
chain: QDVRVQVLPEVRGQLGGTVELPCHLLPPVPGLYISLVTWQRPDAPANHQNVAAFHPKMGPSFPSPKPGSERLSFVSAKQSTGQDTEAELQDATLALHGLTVEDEGNYTCEFATFPKGSVRGMTWLRVIAKPKNQAEAQKVTFSQDPTTVALCISKEGRPPARISWLSSLDWEAKETQVSGTLAGTVTVTSRFTLVPSGRADGVTVTCKVEHESFEEPALIPVTLSVRYPPEVSISGYDDNWYLGRTDATLSCDVRSNPEPTGYDWSTTSGTFPTSAVAQGSQLVIHAVDSLFNTTFVCTVTNAVGMGRAEQVIFVRETPNTAGAGATGG
modifications: here or on the partner: biotin on the BirA biotinylation tag (BLI and ProteOn SPR)
For B1, the stoichiometry N was 1.
